{
  "source": "paper PMC5433938",
  "key": {"[1]": {"target": "T1, estrogen receptor alpha (ERα) (human (endogenous in MCF-7 and T-47D)), P03372", "T1 chain": "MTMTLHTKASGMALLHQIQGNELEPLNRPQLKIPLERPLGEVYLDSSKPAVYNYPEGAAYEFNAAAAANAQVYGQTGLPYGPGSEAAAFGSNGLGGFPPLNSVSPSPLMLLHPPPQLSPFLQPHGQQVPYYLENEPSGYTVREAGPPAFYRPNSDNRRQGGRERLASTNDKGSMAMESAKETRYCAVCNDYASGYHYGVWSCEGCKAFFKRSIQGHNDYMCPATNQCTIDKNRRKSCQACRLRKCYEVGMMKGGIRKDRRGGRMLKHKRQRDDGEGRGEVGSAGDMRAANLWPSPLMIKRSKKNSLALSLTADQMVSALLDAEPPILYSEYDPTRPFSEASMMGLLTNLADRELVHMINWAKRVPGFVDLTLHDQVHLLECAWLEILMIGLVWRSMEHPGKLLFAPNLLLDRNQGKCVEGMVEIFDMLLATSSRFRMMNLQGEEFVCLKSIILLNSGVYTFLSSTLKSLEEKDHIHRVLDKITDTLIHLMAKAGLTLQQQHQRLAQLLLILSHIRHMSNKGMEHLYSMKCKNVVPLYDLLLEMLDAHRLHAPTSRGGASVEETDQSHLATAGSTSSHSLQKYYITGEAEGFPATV", "experiment": "structured illumination microscopy (N-SIM) of double immunofluorescence; T-47D cells, formalin-fixed paraffin cell-block sections; two primary antibodies, Alexa Fluor 488 and 594 secondaries; % of ER dimer = yellow area/(yellow + green + red areas) x 100", "details": "remark: other sources report otherwise"}, "[2]": {"target": "T1, estrogen receptor alpha (ERα) (human …)", "experiment": "structured illumination microscopy (N-SIM) of double immunofluorescence; MCF-7 cells, formalin-fixed paraffin cell-block sections; two primary antibodies, Alexa Fluor 488 and 594 secondaries; % of ER dimer = yellow area/(yellow + green + red areas) x 100; homodimer also followed with 10 nM E2 for 15, 45, 90 min", "details": "remark: other sources report otherwise"}},
  "data": [
    {"binder": "estrogen receptor alpha (ERα), P03372 1-595 (receptor) MTMTLHTKASGMALLHQIQGNELEPLNRPQLKIPLERPLGEVYLDSSKPAVYNYPEGAAYEFNAAAAANAQVYGQTGLPYGPGSEAAAFGSNGLGGFPPLNSVSPSPLMLLHPPPQLSPFLQPHGQQVPYYLENEPSGYTVREAGPPAFYRPNSDNRRQGGRERLASTNDKGSMAMESAKETRYCAVCNDYASGYHYGVWSCEGCKAFFKRSIQGHNDYMCPATNQCTIDKNRRKSCQACRLRKCYEVGMMKGGIRKDRRGGRMLKHKRQRDDGEGRGEVGSAGDMRAANLWPSPLMIKRSKKNSLALSLTADQMVSALLDAEPPILYSEYDPTRPFSEASMMGLLTNLADRELVHMINWAKRVPGFVDLTLHDQVHLLECAWLEILMIGLVWRSMEHPGKLLFAPNLLLDRNQGKCVEGMVEIFDMLLATSSRFRMMNLQGEEFVCLKSIILLNSGVYTFLSSTLKSLEEKDHIHRVLDKITDTLIHLMAKAGLTLQQQHQRLAQLLLILSHIRHMSNKGMEHLYSMKCKNVVPLYDLLLEMLDAHRLHAPTSRGGASVEETDQSHLATAGSTSSHSLQKYYITGEAEGFPATV", "values": [
      {"measurement": "% of ER dimer (N-SIM)", "setting": "[1]", "result": 13.4, "unit": "%"},
      {"measurement": "% of ER dimer (N-SIM)", "setting": "[2]", "result": 23, "unit": "%"}
    ]}
  ]
}
